Test results as given in US20140274782A1, “AFFINITY REAGENTS AND METHODS FOR DETECTION, PURIFICATION, AND PROTEOMIC ANALYSIS OF METHYLATED PROTEINS” (The Board of Trustees of the Leland Stanford Junior …, priority 2013, published 2014).

T1: G9a and GLP (Homo sapiens, UniProt Q96KQ7+Q9H9B1)
T1 sequence (Q96KQ7 2-1210 limits assumed): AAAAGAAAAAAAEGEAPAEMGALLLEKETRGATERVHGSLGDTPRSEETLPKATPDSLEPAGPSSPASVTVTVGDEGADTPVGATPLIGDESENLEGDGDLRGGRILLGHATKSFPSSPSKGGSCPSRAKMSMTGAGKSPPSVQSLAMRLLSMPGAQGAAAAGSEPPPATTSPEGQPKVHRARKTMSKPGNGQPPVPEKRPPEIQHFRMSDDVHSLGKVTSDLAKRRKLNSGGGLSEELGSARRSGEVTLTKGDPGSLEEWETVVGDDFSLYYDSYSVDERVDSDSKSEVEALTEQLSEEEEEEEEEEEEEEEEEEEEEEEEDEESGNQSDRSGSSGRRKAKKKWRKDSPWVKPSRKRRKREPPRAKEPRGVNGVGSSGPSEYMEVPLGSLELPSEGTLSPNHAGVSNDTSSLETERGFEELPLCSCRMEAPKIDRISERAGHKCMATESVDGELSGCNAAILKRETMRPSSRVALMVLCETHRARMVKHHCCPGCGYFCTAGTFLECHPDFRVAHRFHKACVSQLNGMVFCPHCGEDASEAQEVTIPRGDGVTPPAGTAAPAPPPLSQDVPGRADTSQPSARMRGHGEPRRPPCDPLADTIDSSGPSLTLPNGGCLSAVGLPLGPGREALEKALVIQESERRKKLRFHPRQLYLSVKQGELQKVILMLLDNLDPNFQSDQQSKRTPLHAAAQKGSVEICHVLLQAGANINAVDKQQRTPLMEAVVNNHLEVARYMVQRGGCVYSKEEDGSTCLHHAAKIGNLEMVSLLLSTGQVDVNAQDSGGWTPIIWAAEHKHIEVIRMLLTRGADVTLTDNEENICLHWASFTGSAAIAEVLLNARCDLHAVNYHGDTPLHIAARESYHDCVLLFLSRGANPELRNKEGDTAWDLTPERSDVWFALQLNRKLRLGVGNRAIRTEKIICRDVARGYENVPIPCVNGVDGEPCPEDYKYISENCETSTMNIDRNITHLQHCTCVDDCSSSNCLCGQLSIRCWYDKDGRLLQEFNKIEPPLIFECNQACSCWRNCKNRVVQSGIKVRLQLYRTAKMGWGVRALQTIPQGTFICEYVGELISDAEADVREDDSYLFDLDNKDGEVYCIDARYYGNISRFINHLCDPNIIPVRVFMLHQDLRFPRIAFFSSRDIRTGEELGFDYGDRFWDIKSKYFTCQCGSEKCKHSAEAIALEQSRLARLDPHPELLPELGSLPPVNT
T1 sequence (Q9H9B1 2-1298 limits assumed): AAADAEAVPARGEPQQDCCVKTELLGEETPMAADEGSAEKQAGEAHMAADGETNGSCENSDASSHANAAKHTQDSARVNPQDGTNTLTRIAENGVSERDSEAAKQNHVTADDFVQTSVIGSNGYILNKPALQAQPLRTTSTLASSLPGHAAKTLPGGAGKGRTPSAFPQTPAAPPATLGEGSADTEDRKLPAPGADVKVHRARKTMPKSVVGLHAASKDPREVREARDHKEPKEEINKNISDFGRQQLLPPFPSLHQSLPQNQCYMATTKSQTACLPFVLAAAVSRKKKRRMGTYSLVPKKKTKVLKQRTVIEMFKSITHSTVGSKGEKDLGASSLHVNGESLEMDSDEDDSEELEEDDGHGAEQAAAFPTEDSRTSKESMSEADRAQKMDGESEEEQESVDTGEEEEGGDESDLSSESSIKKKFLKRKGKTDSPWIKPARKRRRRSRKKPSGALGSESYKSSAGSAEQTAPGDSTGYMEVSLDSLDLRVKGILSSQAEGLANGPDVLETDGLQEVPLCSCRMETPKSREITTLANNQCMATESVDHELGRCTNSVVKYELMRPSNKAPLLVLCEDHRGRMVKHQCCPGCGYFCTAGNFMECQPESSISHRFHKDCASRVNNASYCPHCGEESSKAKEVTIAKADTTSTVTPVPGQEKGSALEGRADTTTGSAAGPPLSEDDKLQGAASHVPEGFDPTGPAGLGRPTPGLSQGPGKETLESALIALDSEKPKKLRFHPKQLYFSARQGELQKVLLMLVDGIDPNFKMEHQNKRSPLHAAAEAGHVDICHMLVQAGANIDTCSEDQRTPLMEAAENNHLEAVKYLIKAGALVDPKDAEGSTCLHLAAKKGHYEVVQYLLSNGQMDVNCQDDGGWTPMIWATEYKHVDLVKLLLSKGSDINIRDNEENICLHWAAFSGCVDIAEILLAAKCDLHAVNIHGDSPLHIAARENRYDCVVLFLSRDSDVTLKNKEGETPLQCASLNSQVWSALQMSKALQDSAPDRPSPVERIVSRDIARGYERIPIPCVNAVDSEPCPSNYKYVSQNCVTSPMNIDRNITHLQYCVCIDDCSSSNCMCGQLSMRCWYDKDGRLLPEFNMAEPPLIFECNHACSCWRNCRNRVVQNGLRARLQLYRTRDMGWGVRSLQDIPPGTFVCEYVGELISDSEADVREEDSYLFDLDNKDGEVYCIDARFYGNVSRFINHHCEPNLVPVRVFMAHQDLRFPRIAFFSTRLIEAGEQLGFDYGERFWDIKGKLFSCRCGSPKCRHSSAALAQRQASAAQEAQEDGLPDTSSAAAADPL


Legend:
G9a and GLP = target: T1, G9a and GLP; experiment: Triple SILAC pull-down after UNC0638 treatment of 293T cells, DMSO/UNC0638 ratio of protein captured by 3×MBT; type: cell-based; design: cells were treated for 24 hours with UNC0638 at 2.5 μM or DMSO vehicle control; endogenous in cells; host or cells: HEK 293T; settings: all values in log base 2; for Relative to UNC0638 UNC Heavy / Relative to UNC0638 UNC Light: SILAC ratio DMSO relative to UNC0638, pull-down with 3xMBT; for Relative to UNC0638 UNC Heavy: UNC0638 in heavy SILAC media; for Relative to UNC0638 UNC Light: UNC0638 in light SILAC media; for Relative to UNC0638 Average: average of UNC Light and UNC Heavy experiments;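 on all read-outs here: mass spectrometry (Q-Exactive) SILAC quantitation, DMSO/UNC0638 ratio computed after subtracting 3×MBTD355N mutant pull-down background, only proteins with at least twofold 3×MBT over mutant signal considered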
3×MBT domain of L3MBTL1 = experiment: Triple SILAC pull-down, 3xMBT/3xMBTD355N ratio (cytoplasmic, nuclear and chromatin fractions of 293T cells); type: binding, human; settings: SILAC ratio 3xMBT vs 3xMBTD355N pull-down, 293T cells, all values in log base 2; for 3xMBT/D355N UNC Heavy: experiment with UNC0638 in heavy SILAC media; for 3xMBT/D355N UNC Light: experiment with UNC0638 in light SILAC media;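 on all read-outs here: proteins quantified with MaxQuant, requiring at least two unique peptides and quantification in both label directions, normalized to the mean of proteins from a digested loading control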

| Relative to UNC0638 UNC Heavy (G9a and GLP) [log base 2] | Relative to UNC0638 UNC Light (G9a and GLP) [log base 2] | Relative to UNC0638 Average (G9a and GLP) [log base 2] | Molecule | 3xMBT/D355N UNC Heavy (3×MBT domain of L3MBTL1) [log base 2] | 3xMBT/D355N UNC Light (3×MBT domain of L3MBTL1) [log base 2] |
| --- | --- | --- | --- | --- | --- |
| −0.05 | −0.26 | −0.16 | LANCL2 (protein, UniProt Q9NS86 2-450, looked up) LanC-like protein 2: GETMSKRLKLHLGGEAEMEERAFVNPFPDYEAAAGALLASGAAEETGCVRPPATTDEPGLPFHQDGKIIHNFIRRIQTKIKDLLQQMEEGLKTADPHDCSAYTGWTGIALLYLQLYRVTCDQTYLLRSLDYVKRTLRNLNGRRVTFLCGDAGPLAVGAVIYHKLRSDCESQECVTKLLQLQRSVVCQESDLPDELLYGRAGYLYALLYLNTEIGPGTVCESAIKEVVNAIIESGKTLSREERKTERCPLLYQWHRKQYVGAAHGMAGIYYMLMQPAAKVDQETLTEMVKPSIDYVRHKKFRSGNYPSSLSNETDRLVHWCHGAPGVIHMLMQAYKVFKEEKYLKEAMECSDVIWQRGLLRKGYGICHGTAGNGYSFLSLYRLTQDKKYLYRACKFAEWCLDYGAHGCRIPDRPYSLFEGMAGAIHFLSDVLGPETSRFPAFELDSSKRD | 1.44 | 1.81 |
| −0.45 | – | −0.45 | SERBP1 (protein, UniProt Q8NC51 2-408, looked up) SERPINE1 mRNA-binding protein …: PGHLQEGFGCVVTNRFDQLFDDESDPFEVLKAAENKKKEAGGGGVGGPGAKSAAQAAAQTNSNAAGKQLRKESQKDRKNPLPPSVGVVDKKEETQPPVALKKEGIRRVGRRPDQQLQGEGKIIDRRPERRPPRERRFEKPLEEKGEGGEFSVDRPIIDRPIRGRGGLGRGRGGRGRGMGRGDGFDSRGKREFDRHSGSDRSSFSHYSGLKHEDKRGGSGSHNWGTVKDELTESPKYIQKQISYNYSDLDQSNVTEETPEGEEHHPVADTENKENEVEEVKEEGPKEMTLDEWKAIQNKDRAKVEFNIRKPNEGADGQWKKGFVLHKSKSEEAHAEDSVMDHHFRKPANDITSQLEINFGDLGRPGRGGRGGRGGRGRGGRPNRGSRTDKSSASAPDVDDPEAFPALA | −0.66 | −0.06 |
| −0.78 | 0.47 | −0.15 | CSTF3 (protein, UniProt Q12996 2-717, looked up) Cleavage stimulation factor …: SGDGATEQAAEYVPEKVKKAEKKLEENPYDLDAWSILIREAQNQPIDKARKTYERLVAQFPSSGRFWKLYIEAEIKAKNYDKVEKLFQRCLMKVLHIDLWKCYLSYVRETKGKLPSYKEKMAQAYDFALDKIGMEIMSYQIWVDYINFLKGVEAVGSYAENQRITAVRRVYQRGCVNPMINIEQLWRDYNKYEEGINIHLAKKMIEDRSRDYMNARRVAKEYETVMKGLDRNAPSVPPQNTPQEAQQVDMWKKYIQWEKSNPLRTEDQTLITKRVMFAYEQCLLVLGHHPDIWYEAAQYLEQSSKLLAEKGDMNNAKLFSDEAANIYERAISTLLKKNMLLYFAYADYEESRMKYEKVHSIYNRLLAIEDIDPTLVYIQYMKFARRAEGIKSGRMIFKKAREDTRTRHHVYVTAALMEYYCSKDKSVAFKIFELGLKKYGDIPEYVLAYIDYLSHLNEDNNTRVLFERVLTSGSLPPEKSGEIWARFLAFESNIGDLASILKVEKRRFTAFKEEYEGKETALLVDRYKFMDLYPCSASELKALGYKDVSRAKLAAIIPDPVVAPSIVPVLKDEVDRKPEYPKPDTQQMIPFQPRHLAPPGLHPVPGGVFPVPPAAVVLMKLLPPPICFQGPFVQVDELMEIFRRCKIPNTVEEAVRIITGGAPELAVEGNGPVESNAVLTKAVKRPNEDSDEDEEKGAVVPPVHDIYRARQQKRIR | 1.58 | 1.48 |
| −2.12 | 0.06 | −1.03 | ORC5 (protein, UniProt O43913 1-435, looked up) Origin recognition complex …: MPHLENVVLCRESQVSILQSLFGERHHFSFPSIFIYGHTASGKTYVTQTLLKTLELPHVFVNCVECFTLRLLLEQILNKLNHLSSSEDGCSTEITCETFNDFVRLFKQVTTAENLKDQTVYIVLDKAEYLRDMEANLLPGFLRLQELADRNVTVLFLSEIVWEKFRPNTGCFEPFVLYFPDYSIGNLQKILSHDHPPEYSADFYAAYINILLGVFYTVCRDLKELRHLAVLNFPKYCEPVVKGEASERDTRKLWRNIEPHLKKAMQTVYLREISSSQWEKLQKDDTDPGQLKGLSAHTHVELPYYSKFILIAAYLASYNPARTDKRFFLKHHGKIKKTNFLKKHEKTSNHLLGPKPFPLDRLLAILYSIVDSRVAPTANIFSQITSLVTLQLLTLVGHDDQLDGPKYKCTVSLDFIRAIARTVNFDIIKYLYDFL | 1.97 | 2.52 |
| 0.01 | −0.64 | −0.31 | EEF1B2 (protein, UniProt P24534 2-225, looked up) Elongation factor 1-beta: GFGDLKSPAGLQVLNDYLADKSYIEGYVPSQADVAVFEAVSSPPPADLCHALRWYNHIKSYEKEKASLPGVKKALGKYGPADVEDTTGSGATDSKDDDDIDLFGSDDEEESEEAKRLREERLAQYESKKAKKPALVAKSSILLDVKPWDDETDMAKLEECVRSIQADGLVWGSSKLVPVGYGIKKLQIQCVVEDDKVGTDMLEEQITAFEDYVQSMDVAAFNKI | −0.81 | −0.32 |
| 0.47 | −1.35 | −0.44 | DUSP3 (protein, UniProt P51452 1-185, looked up) Dual specificity protein …: MSGSFELSVQDLNDLLSDGSGCYSLPSQPCNEVTPRIYVGNASVAQDIPKLQKLGITHVLNAAEGRSFMHVNTNANFYKDSGITYLGIKANDTQEFNLSAYFERAADFIDQALAQKNGRVLVHCREGYSRSPTLVIAYLMMRQKMDVKSALSIVRQNREIGPNDGFLAQLCQLNDRLAKEGKLKP | 1.97 | 1.19 |
